{"source": "patent US6956022B2", "about": "“Agents for preventing and treating thrombocytopenia” (Chugai Seiyaku Kabushiki Kaisha, priority 1996, dated 2005)", "molecules": {"B1": {"name": "human PTH(1-84) (protein, UniProt P01270 32-115, looked up)", "Parathyroid hormone": "SVSEIQLMHNLGKHLNSMERVEWLRKKLQDVHNFVALGAPLAPRDAGSQRPRKKEDNVLVESHEKSLGEADKADVNVLTKAKSQ", "modifications": "Parathyroid hormone"}}, "key": {"platelet count [1]": {"test_system": "platelet count", "test": "Test for daily administration to mouse (peripheral platelet count)", "type": "in vivo", "details": "C57B1/6N mice, subcutaneous once a day", "method": "Test for Daily Administration to Mouse\nNine-week old male C57B1/6N mice as purchased from Japan Charles River Co., Ltd. were used in the experiment.\nDrug solutions to be administered were prepared basically by the same procedure as in Example 1 to give drug concentrations of 5, 20 and 80 μg/mL.\nThe mice under test were divided into four groups, which were administered subcutaneously with the three drug solutions and a control (citrate buffer) once a day in a volume of 10 mL/kg. […] The administration was initiated at 10 a.m.\nOn days 5, 7 and 9 after the start of administration, five or six mice were picked up at random from each group of animals and blood samples were withdrawn through the orbital vein. The sampling of blood was timed to occur 24 h of the final administration. Separate blood samples were taken from untreated mice (five in number) to obtain the value for normal mouse. Peripheral corpuscle counts were obtained with an automatic corpuscle counter F-800(TOA MEDICAL ELECTRONICS CO., LTD.)."}, "[2]": {"test_system": "BFU-E (precursor cells of erythrocytes)", "details": "cited from earlier work"}, "platelet counts": {"test_system": "platelet counts", "test": "Test for single-dose administration to mouse (peripheral platelet count)", "type": "in vivo", "details": "C57B1/6N mice, single dose 10 μg/kg through the tail vein, 6 and 9 h after the administration", "method": "Test for Single-dose Administration to Mouse\nNine-week old male C57B1/6N mice as purchased from Japan Charles River Co. Ltd. were used in the experiment.\nHuman PTH(1-84) was dissolved in a citrate buffer (pH 5; containing 0.05% of Tween 80) at final concentrations of 1, 0.2 and 0.04 ˜g/mL so as to prepare the drug solutions to be administered.\nEach of the thus prepared drug solutions and a control (citrate buffer) was administered to 15 mice through the tail vein in a volume of 10 mL/kg. […] The administration was initiated at 10 a.m.\nAfter 3, 6 and 9 hours of the administration, five mice were picked up at random from each group of animals and blood samples were withdrawn through the orbital vein. At 10 a.m. on the same day, separate blood samples were taken from untreated mice (four in number) to obtain the preadministration value. Peripheral corpuscle counts were obtained with an automatic corpuscle counter F-800 (TOA MEDICAL ELECTRONICS CO., LTD.)"}, "platelet count [3]": {"test_system": "platelet count", "test": "Test for daily administration to rabbit (platelet count)", "type": "in vivo", "details": "rabbits, 200 μg/kg subcutaneous daily", "method": "Test for Daily Administration to Rabbit\nSix 12-15 week old male Japanese albino rabbits JW/CSK were used in the experiment. The animals were individually kept in aluminum rabbit bracket cages Rb-1 (350^w×500^d×350^h mm) in a vavarium in a specific pathogen-free environment under the following conditions: temperature, 24±2° C.; humidity, 50±10%; illumination, light turned on at 5:00 and turned off at 19:00; ventilation, 15 changes/hr. Each animal was supplied with 120 g of a radiation-sterilized feed for rabbits RM (purchased from Funahashi Farm) per day. The animals were also allowed to drink to tap water ad libitum from an automatic water feeder.\nHuman PTH(1-84) was administered in a volume of 2 mL/vial at a concentration of 200 μg/mL. A solvent was also supplied in a volume of 2 mL/vial. Both the drug and the control were stored at −135° C. until use.\nPTH (200 μg/kg) was administered to the rabbits subcutaneously at the back of their neck for 13 consecutive days. The solvent was similarly administered in the same volume as the dose of a rh-PTH solution calculated from their body weight.\nBlood samples (0.5 mL) were withdrawn from the rabbits through the lateral auricular vein before the administration and on days 2, 6, 9 and 13 during the administration period. […]"}, "[4]": {"test_system": "CFU-GM (precursor cells of granulocytes and macrophages)", "details": "cited from earlier work"}}, "data": [{"molecule": "B1", "values": [{"measurement": "platelet count versus control", "setting": "platelet count [1]; all treated groups (50, 200 and 800 μg/kg), day 7", "result": "significantly higher in platelet count than the control"}, {"measurement": "platelet count versus control", "setting": "platelet count [1]; groups administered 200 and 800 μg/kg, day 5", "result": "tendency to increase"}, {"measurement": "in vitro colony formation by BFU-E", "setting": "[2]", "result": "interfered with"}, {"measurement": "platelet counts versus control", "setting": "platelet counts", "result": "significant increase in platelet counts over the control"}, {"measurement": "platelet count relative to the initial level", "setting": "platelet count [3]; day 13", "result": "substantially returned to the initial level"}, {"measurement": "platelet count relative to the initial value", "setting": "platelet count [3]; increase from day 2 until day 6", "result": "two to four times as great as the initial value"}, {"measurement": "in vitro colony formation by CFU-GM", "setting": "[4]", "result": "interfered with"}]}]}
